According to the RNAGym collection of RNA variant scans (doi:10.1073/pnas.2313332121):
Fewer inactive variants are shown than the library holds.

B1: TPR 5TU (parent)
chain: GGAUCUUCUCGAUCUAACAAAAAAGACAAAUCUGCCACAAAGCUUGAGAGCAUCUUCGGAUGCAGAGGCGGCAGCCUUCGGUGGCGCGAUAGCGCCAACGUUCUCAACUAUGACACGCAAAACGCGUGCUCCGUUGAAUGGAGUUUAUCAUG

Variants of: B1
Assay: polymerase ribozyme fitness, log enrichment relative to wild type (log ratio); higher = more active; in vitro selection for triplet polymerase activity
Method in brief: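 To select mutant libraries of each subunit of a heterodimeric triplet polymerase ribozyme, built by PCR and transcribed, each was annealed with a biotinylated primer, partner subunit and triplets, then incubated frozen at −7 °C. Extended constructs were gel-excised, captured on streptavidin beads and amplified by RT-PCR, in one round carried out in triplicate. Illumina sequencing of input and output libraries kept genotypes with ≥10 input reads and ≥1 read per output. Fitness is the base-2 logarithm of genotype enrichment relative to wild-type enrichment, from inverse-variance-weighted replicate averages.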

Variant | polymerase ribozyme fitness (log ratio)
G25U U55A C85A G140C | ≤ -4.2
C18G A26U G86C A150U | -3.07
U7A C75U G94C A122G U145A | -3.63
C36G C95U | -3.45
G50A U56G C85U A115C U144G | -2.74
A40G A60C U61A G81C U90G G94A C123A U139A | ≤ -4.2
A21G U82A C96A U101G A121U | 0.493
A26U A49U G59U | ≤ -4.2
A22C A26U U33G G34A U55A A73U U77G G86A G143A | ≤ -4.2
U15G A20U C54U C85G G94U U104C | -2.12
C5A A12C G42A G68C C79A G83A C108G | ≤ -4.2
U53A C76U G83A | -1.6
U45A G65C A73G G84A A142G | ≤ -4.2
C93A U130A | ≤ -4.2
C35G A91C C118G C123A | ≤ -4.2
C87A U151G | ≤ -4.2
U45A G126A | -2.15
A20C C35U A97G | -0.284
C5G A20U C35U G50U C93U | -3.76
A17U U56G C125G | -1.81
G50A G84A C95G U146C | -0.861
G143C U145G | -1.8
A28U A37U A73G G92U A106G C118G | ≤ -4.2
U4A A49G G50C A66C C76G C93U | ≤ -4.2

Variant | polymerase ribozyme fitness (log ratio)
A16C A19U A73G C87A | ≤ -4.2
A40C C63U U82G G83C C96G A120C A121U U144A | -0.868
C57U A64C A89U G128U U148A | ≤ -4.2
C38U A52G A73U G152U | -4.12
G42C U45A A52C U77G C85A C116G | ≤ -4.2
U82A C103G A113U A137C U148A | ≤ -4.2
C5G C8U A24G G34A A41G G70C A107G G124U U151G | ≤ -4.2
C27A C35A G84U C103G | ≤ -4.2
A16G C43U C79U C132U | ≤ -4.2
A20U A47G G50U C85G | -3.77
G50U C54G A150U | -2.15
A29G A60C G80A A121U G141U | ≤ -4.2
C5G G46A G92C | -4.13
C18G G80C | ≤ -4.2
C18G C32G C35U G86U C105G A115C | -4
U9A A17C A20C C54U U55G G58A G67A C116G G143A | ≤ -4.2
A23C C43A C54U A73U C99G | ≤ -4.2
U53A A98U | -1.39
U9C U44A G46C A47G C85U A121G | ≤ -4.2
C38U A39C A60U | -3.28
C76A C125G U144G | -2.22
C38G C54A G74U A106U G140U | ≤ -4.2
C63A A147C | 0.331
U53A C79A A150U | ≤ -4.2

Variant | polymerase ribozyme fitness (log ratio)
A39U C43A C75G C87U C118U | ≤ -4.2
A16C G92C | -1.11
A29C U44G U55A G68A G71U G80A C93A A98U A138C | ≤ -4.2
A23C G62C C85G U134A U148C | ≤ -4.2
C51U C85G | -2.53
U13C A30U C36G C51U U55A C87A G126U | ≤ -4.2
G50A G84A | -2.43
G58C C85U | -1.17
A30C G81C A138G U146A C149U | ≤ -4.2
G59A C75G G94U C95U | -3.76
A40C U56A A89G | -0.978
U15A A17C C32G A60G C99U C116U | ≤ -4.2
U53A A106U | -1.9
A3C C10A G11U U55A G81C C85U G128A | ≤ -4.2
U7A A28U G46C G50A C95G C103G C129A U144C | ≤ -4.2
C5U A22C C85A | -9.25e-05
G34U A47U | -2.01
G65C G68A G83A A115U G140A | ≤ -4.2
A52C G67C A89C A106G A107G | ≤ -4.2
A30G C54A C85G A120U C125U G136A | ≤ -4.2
A40U G42U C69U A89G A91U A106C C149U | ≤ -4.2
A22U C96A | -0.026
U13G A41G C54G G81A C96G C118U | ≤ -4.2
C32A A37U U56A G74A C76G G86A A115G G124A U151G | ≤ -4.2

Variant | polymerase ribozyme fitness (log ratio)
C85U U101G | -1.15
U15G A39U C72U A91U A147U A150C | ≤ -4.2
A24U A39C G92U U144G U148G | ≤ -4.2
A3C C63G C118U | -0.545
G50A C57A C85A A91C A98C A121U G128U U135G A142U G143A | ≤ -4.2
U15C G80C C93G C116G | -4.05
A23G A29U U61G C99U | ≤ -4.2
A21U G86A | -0.555
G25U C132U | -2.32
A26G A89C A97C G143C | ≤ -4.2
A24G C35U G48U A52U C125A | ≤ -4.2
C96U A97C | 0.0607
G62U C96U | -1.14
A19U A21U C85G | -2.46
A16U G84U G86U C93G U144C | -3.51
C38U A40U C116U U135A | 0.399
U53C A64G U90C G117C | ≤ -4.2
A47C U55G | 0.183
U4G U33C G84U A120U U130C C132U | ≤ -4.2
G68U G128U | ≤ -4.2
A21U C79U C93G | ≤ -4.2
A22C C38A U44G C75A G84A G117A U135A U151G | ≤ -4.2
C87G C105G | ≤ -4.2
A24G C54A A106G | ≤ -4.2

Variant | polymerase ribozyme fitness (log ratio)
A29U U109G C149G | ≤ -4.2
C54U C79U G92U C95U G141C | -3.77
G94A U101G | -0.0834
A20U U56A | -1.87
A19U U33A G84A G92C G94C | ≤ -4.2
U55G A107U A122U | -3.21
U31A G94A | -0.349
A17C G59C U102G C123A | -2.05
A20U A28C G83U C87A C99G G140A | ≤ -4.2
A16G A22U G94A | -0.896
A17C G25A G62U G117U | -2.71
A12G C38U C99U | -0.24
C43A A52C C75U U90G C95U C96G C114G U144G | ≤ -4.2
G46C A66C C85U C93G C118U | ≤ -4.2
U31A C76U C116U U127G | ≤ -4.2
C79G G88U U134C A142U | ≤ -4.2
A120U A121U U144G C149G | -3.46
A26G C36U G65C A91G U111G C149A | ≤ -4.2
C54U C87U | -1.08
U9G A49U C85U | ≤ -4.2
C79U C85U A115C | ≤ -4.2
C38U A52G C57U G67U A89U G92A | ≤ -4.2
A73G C87A | -4.18
G59U G84U | -2.72

Variant | polymerase ribozyme fitness (log ratio)
U13A G34U G94A U102G | ≤ -4.2
A19G U109C G141A | -2.85
A29G A49C G67A C114U U127G | ≤ -4.2
C76A C105U | -2.47
U15A C57A C76U G84C | -1.52
A40G G50U U56A G83C | -4.02
C75U U144C | -0.607
U77C G92C | -3.48
C10A C85U G133C U134A U146G | ≤ -4.2
A30G C108U U109A | ≤ -4.2
A21U A39C C57U A97G | -2.62
G11C G50A G92U G143A | -4.01
A29C C96G | -4.15
G84A G88A | ≤ -4.2
A16G C18U C27U A28U A40C G50C U56A G84C C125A G143A U146G | ≤ -4.2
U4C A17G C18A C57A G59A G68A C96A A107U A121U C123G | ≤ -4.2
U82C C95G | -2.63
A16G A19G G84U A122U | -3.73
A52U C54U G92A A98G A120G U139C U144C U151A | ≤ -4.2
C79U G88C C93A G136U G143C | ≤ -4.2
C114U G141C | -3.4
U56A A113G | -1.32
A40C G140U | -3.39
A12C A21U U53A G59C A60G G84A | -0.862

Variant | polymerase ribozyme fitness (log ratio)
A39C G62U G70A A115G | ≤ -4.2
C87A C105U A107U | ≤ -4.2
A16C G59A C76A C85G U139A | ≤ -4.2
C85G C116U | -1.66
C35U G88A | -4.1
A29U U33C A52C G86A | ≤ -4.2
A39U C54U C57G U61A C95G C125G | ≤ -4.2
U53A G88C | ≤ -4.2
C5G U9C A97G G141C | -3.27
U56A C57U G86C A98C G141A G152A | -3.31
U4C G11A G68A C72A G83U C93G G140A U148C | ≤ -4.2
U33A G50C A52C C87A C96U C105U U127G U144A | ≤ -4.2
A28U G80A A91U | ≤ -4.2
C36A A40C G83C A106G U144A | ≤ -4.2
A16G A20U G46U A60G A138C | ≤ -4.2
U31A U53G G84U C96G | ≤ -4.2
G11U U53A G65A A73U G83C U144A | ≤ -4.2
U55A C85U A122G A142G U145G | -2.39
C27A A37U G42C A106C C116G A121G G128A U145G | ≤ -4.2
C72U C95U C96U U146A | -2.06
A16C A20C G84U A97U U130C | -4.17
A22U U134A | -2.01
U31G A41C C75U C85G G88C A137U | ≤ -4.2
